Results on 1 substance are retold here after publication PMC6711944.

In this assay the target is NS1B-NTR (1-103), N-terminal region of the influenza B virus NS1 protein (influenza B virus) (UniProt P03502). Nature of the assay: ITC; about 0.5 mM ISG15 injected into 250 ul of 0.05 mM NS1B-NTR in the cell, 20 aliquots of 2 ul; 25 °C; 10 mM HEPES-sodium, 500 mM NaCl, pH 7.2; MicroCal iTC200; 'one set of sites' fitting model.

For orientation: Kd means the concentration at which binding is half-saturated. Low readings indicate higher affinity, high ones lower affinity. Substance cISG15-K82A-N83A (natural protein) displayed an equilibrium dissociation constant (Kd) of 12 µM.
